Values of other authors in PMC12990809.

Experiments:
Assay in all cases: pulldown
Conditions in all cases: 20 nM protein, 1.5 uM RNA pool; 20 mM HEPES pH 7.8, 70 mM KCl, 10 mM NaCl, 10% glycerol, 2 mM DTT, 0.1 ug/uL BSA; 30 min, 4 C (protocol of this paper; not …); cited from earlier work
[1] = biological target: T1, snf (Drosophila melanogaster) (UniProt P43332)
T1 sequence: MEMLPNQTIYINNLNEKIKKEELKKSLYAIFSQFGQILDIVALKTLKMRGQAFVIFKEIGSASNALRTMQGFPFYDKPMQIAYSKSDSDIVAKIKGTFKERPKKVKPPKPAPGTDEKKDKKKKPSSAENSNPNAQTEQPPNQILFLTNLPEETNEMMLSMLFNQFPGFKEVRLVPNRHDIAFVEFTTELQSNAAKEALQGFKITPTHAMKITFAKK

[2] = biological target: T2, CG5213 (Drosophila melanogaster) (UniProt Q7JY27)
T2 sequence: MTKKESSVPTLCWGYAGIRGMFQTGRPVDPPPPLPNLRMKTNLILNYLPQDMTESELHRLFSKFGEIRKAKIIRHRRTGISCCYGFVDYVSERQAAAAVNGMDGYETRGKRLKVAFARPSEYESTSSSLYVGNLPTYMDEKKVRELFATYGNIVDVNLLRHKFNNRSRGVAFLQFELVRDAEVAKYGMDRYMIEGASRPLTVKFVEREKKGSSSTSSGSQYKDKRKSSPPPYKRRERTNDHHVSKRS

PABPC3 (Homo sapiens) = PABPC3 (Homo sapiens) (UniProt Q9H361)
PABPC3 (Homo sapiens), sequence (Q9H361 1-414): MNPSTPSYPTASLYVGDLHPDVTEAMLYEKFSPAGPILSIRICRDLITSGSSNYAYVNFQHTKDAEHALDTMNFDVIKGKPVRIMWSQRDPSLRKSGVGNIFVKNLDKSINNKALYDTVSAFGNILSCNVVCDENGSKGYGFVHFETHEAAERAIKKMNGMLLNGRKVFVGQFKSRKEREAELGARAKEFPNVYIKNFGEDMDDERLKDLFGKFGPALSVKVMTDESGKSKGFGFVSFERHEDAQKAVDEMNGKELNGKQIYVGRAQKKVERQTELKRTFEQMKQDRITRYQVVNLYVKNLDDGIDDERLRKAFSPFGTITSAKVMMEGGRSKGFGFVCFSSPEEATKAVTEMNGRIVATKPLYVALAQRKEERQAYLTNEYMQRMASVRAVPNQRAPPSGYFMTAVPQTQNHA

A1CF (Homo sapiens) = biological target: T3, A1CF (Homo sapiens) (UniProt Q9NQ94)
T3 sequence: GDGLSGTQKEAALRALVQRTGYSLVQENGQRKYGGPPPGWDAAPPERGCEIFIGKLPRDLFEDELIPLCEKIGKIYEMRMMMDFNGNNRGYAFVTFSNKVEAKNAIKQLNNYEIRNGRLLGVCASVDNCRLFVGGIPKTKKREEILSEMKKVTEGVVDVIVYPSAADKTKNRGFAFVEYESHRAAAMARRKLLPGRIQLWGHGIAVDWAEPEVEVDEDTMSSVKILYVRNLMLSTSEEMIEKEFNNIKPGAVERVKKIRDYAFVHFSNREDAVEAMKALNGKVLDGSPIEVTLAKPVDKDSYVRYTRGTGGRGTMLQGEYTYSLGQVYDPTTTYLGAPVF

RBMS1 (Homo sapiens) = biological target: T4, RBMS1 (Homo sapiens) (UniProt P29558)
T4 sequence: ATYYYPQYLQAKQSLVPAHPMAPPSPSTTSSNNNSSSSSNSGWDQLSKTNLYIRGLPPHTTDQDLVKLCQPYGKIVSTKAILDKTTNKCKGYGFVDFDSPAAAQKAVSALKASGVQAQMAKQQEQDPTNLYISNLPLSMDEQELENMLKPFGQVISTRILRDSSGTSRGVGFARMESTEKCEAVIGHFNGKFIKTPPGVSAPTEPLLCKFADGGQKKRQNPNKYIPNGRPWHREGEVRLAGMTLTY

[3] = biological target: T5, qkr58E-1 (Drosophila melanogaster) (UniProt Q7JVR3)
T5 sequence: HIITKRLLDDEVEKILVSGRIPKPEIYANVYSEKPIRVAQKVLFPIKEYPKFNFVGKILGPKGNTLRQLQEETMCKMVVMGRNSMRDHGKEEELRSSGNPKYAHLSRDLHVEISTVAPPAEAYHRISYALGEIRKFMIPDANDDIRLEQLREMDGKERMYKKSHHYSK

[4] = biological target: T6, B52 (Drosophila melanogaster) (UniProt P26686)
T6 sequence: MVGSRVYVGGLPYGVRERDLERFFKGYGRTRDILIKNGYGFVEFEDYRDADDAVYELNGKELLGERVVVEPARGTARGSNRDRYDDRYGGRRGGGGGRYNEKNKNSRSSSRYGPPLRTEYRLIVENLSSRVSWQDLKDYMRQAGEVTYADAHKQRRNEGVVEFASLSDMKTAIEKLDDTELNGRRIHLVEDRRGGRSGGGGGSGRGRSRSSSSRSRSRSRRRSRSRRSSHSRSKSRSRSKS

RALY (Homo sapiens) = RALY (Homo sapiens) (UniProt Q9UKM9)
RALY (Homo sapiens), sequence (Q9UKM9 1-136): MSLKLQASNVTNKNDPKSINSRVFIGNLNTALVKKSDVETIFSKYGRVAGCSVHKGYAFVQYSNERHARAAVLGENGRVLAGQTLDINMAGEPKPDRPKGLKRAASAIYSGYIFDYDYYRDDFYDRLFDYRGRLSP

PABPN1 (Homo sapiens) = biological target: T7, PABPN1 (Homo sapiens) (UniProt Q86U42)
T7 sequence: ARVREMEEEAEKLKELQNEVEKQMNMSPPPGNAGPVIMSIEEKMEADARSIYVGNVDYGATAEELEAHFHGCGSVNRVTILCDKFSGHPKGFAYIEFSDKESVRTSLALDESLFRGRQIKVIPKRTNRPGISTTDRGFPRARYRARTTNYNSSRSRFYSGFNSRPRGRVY

HNRNPH2 (Homo sapiens) = biological target: T8, HNRNPH2 (Homo sapiens) (UniProt P55795)
T8 sequence: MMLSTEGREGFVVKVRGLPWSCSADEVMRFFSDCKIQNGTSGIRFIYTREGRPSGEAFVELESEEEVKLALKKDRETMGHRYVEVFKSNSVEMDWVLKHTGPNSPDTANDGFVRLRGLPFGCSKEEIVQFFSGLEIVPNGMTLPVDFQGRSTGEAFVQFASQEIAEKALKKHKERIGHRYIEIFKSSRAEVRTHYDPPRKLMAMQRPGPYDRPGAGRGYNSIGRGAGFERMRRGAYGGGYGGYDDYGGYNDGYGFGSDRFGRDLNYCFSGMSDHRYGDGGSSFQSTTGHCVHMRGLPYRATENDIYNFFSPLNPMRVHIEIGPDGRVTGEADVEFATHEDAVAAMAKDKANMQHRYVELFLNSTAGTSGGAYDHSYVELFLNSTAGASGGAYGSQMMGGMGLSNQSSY

ESRP2 (Homo sapiens) = biological target: T9, ESRP2 (Homo sapiens) (UniProt Q9H6T0)
T9 sequence: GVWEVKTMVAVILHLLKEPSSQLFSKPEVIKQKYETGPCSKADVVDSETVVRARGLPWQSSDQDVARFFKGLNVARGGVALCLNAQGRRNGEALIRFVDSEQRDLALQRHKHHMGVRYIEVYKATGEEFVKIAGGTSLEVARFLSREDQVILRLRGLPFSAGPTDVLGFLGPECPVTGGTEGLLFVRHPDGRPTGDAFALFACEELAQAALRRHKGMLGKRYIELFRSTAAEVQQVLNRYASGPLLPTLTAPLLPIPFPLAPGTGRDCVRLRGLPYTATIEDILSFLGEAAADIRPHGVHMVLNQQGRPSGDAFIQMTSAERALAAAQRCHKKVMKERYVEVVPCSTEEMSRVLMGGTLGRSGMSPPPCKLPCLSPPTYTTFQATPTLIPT

[5] = biological target: T10, papi (Drosophila melanogaster) (UniProt Q9VQ91)
T10 sequence: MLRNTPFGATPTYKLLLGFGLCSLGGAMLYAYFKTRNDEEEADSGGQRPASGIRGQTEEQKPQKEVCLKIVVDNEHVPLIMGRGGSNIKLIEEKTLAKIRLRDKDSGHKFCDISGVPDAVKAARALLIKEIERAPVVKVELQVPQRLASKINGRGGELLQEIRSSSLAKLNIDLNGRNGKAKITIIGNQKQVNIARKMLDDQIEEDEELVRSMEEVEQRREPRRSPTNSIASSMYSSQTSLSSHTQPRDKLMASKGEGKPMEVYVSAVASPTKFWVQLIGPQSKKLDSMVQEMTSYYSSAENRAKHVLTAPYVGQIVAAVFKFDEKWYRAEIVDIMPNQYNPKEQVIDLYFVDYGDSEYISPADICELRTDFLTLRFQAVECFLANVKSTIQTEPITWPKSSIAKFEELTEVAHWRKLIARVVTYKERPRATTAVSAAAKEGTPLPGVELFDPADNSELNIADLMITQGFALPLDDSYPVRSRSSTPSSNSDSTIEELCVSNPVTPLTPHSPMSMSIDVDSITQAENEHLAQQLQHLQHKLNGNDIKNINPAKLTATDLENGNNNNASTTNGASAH

RBM42 (Homo sapiens) = biological target: T11, RBM42 (Homo sapiens) (UniProt Q9BTD8)
T11 sequence: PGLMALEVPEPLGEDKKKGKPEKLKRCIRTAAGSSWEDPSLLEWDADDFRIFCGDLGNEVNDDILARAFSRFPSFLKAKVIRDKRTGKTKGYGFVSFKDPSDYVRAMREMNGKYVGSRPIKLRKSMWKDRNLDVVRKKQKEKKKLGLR

[6] = biological target: T12, rin (Drosophila melanogaster) (UniProt A0ACM8PZ16)
T12 sequence: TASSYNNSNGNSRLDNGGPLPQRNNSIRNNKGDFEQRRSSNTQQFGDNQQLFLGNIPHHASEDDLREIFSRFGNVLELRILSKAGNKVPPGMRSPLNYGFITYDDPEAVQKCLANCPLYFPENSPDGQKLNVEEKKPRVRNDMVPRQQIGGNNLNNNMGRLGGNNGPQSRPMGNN

[7] = biological target: T13, CG7804 (Drosophila melanogaster) (UniProt Q7JW23)
T13 sequence: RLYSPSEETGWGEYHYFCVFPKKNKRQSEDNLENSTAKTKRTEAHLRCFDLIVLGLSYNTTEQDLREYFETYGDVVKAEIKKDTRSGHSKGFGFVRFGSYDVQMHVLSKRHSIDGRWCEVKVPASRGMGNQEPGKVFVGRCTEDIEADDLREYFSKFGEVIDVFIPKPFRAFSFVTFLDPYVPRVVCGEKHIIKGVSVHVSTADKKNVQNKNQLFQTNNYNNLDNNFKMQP

PABPC1 (Homo sapiens) = PABPC1 (Homo sapiens) (UniProt P11940)
PABPC1 (Homo sapiens), sequence (P11940 1-414): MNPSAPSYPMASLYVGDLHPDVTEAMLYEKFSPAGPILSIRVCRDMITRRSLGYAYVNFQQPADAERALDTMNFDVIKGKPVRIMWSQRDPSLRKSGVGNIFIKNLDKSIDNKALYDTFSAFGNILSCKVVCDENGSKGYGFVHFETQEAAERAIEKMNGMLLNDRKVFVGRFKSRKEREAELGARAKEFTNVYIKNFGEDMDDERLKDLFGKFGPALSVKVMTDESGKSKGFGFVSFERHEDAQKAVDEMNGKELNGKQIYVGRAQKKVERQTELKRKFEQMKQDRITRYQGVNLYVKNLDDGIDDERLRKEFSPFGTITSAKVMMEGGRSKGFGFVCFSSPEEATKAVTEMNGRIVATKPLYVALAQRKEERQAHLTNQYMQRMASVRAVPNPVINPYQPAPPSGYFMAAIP

CPEB2 (Homo sapiens) = biological target: T14, CPEB2 (Homo sapiens) (UniProt Q7Z5Q1)
T14 sequence: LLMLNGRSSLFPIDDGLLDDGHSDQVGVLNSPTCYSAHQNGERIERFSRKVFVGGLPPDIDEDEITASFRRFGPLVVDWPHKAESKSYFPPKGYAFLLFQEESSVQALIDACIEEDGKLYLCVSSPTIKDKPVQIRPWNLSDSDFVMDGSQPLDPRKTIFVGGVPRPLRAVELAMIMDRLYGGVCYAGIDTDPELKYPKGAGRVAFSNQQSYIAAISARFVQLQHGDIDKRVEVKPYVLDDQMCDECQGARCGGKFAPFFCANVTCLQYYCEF

[8] = biological target: pAbp (Drosophila melanogaster) (UniProt P21187)
pAbp (Drosophila melanogaster), sequence (P21187 1-408): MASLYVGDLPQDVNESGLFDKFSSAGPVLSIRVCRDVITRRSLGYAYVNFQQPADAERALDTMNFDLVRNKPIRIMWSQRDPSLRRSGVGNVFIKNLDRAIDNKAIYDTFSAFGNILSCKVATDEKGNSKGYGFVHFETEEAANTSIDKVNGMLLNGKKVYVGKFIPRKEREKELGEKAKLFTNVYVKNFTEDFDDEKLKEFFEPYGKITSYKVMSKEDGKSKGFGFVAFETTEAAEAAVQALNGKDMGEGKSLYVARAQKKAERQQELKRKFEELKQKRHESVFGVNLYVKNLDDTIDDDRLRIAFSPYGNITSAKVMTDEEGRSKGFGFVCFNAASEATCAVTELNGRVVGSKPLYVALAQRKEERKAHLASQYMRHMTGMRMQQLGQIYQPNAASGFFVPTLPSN

CNOT4 (Homo sapiens) = biological target: T15, CNOT4 (Homo sapiens) (UniProt O95628)
T15 sequence: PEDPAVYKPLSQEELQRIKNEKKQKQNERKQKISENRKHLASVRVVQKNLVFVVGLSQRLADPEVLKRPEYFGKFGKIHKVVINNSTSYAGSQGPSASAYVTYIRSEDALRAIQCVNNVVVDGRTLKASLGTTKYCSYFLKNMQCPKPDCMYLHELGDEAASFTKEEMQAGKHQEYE

[9] = biological target: T16, CG2931 (Drosophila melanogaster) (UniProt Q7JZA8)
T16 sequence: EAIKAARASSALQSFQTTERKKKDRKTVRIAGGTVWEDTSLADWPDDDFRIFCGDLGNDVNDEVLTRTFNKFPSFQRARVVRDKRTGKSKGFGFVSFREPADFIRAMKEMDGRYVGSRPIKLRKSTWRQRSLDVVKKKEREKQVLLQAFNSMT

[10] = biological target: mub (Drosophila melanogaster) (UniProt M9NGB9)
mub (Drosophila melanogaster), sequence (M9NGB9 entry or part of it): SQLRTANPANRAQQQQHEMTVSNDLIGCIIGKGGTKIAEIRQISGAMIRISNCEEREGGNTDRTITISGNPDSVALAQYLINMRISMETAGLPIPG

FXR1 (Homo sapiens) = FXR1 (Homo sapiens) (UniProt P51114)
FXR1 (Homo sapiens), sequence (P51114 170-401): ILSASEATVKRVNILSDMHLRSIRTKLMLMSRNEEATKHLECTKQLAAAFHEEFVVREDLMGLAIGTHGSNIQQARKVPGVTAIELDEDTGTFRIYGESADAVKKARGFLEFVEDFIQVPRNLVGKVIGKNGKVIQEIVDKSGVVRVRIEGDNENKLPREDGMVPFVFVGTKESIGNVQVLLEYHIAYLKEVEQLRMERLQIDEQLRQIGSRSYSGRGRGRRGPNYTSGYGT

CPEB4 (Homo sapiens) = biological target: T17, CPEB4 (Homo sapiens) (UniProt Q17RY0)
T17 sequence: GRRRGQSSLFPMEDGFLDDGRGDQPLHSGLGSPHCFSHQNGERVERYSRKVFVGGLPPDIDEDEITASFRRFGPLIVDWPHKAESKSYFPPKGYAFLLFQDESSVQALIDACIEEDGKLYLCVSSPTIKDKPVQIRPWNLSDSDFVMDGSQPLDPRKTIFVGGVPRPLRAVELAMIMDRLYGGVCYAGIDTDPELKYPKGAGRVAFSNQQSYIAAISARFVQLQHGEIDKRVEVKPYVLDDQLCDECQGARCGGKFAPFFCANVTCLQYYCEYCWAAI

UUGCACA [RNAcompete motif RNCMPT00145]
binding signal (z-score (mean of top ten 7-mers)) [1]: 14

UACUUU [RNAcompete motif RNCMPT00010]
binding signal (z-score (mean of top ten 7-mers)) [2]: 11.8

AAAACC [RNAcompete motif RNCMPT00153]
binding signal (z-score (mean of top ten 7-mers)) (PABPC3 (Homo sapiens)): 8.16

UAAUUG [RNAcompete motif RNCMPT00001]
binding signal (z-score (mean of top ten 7-mers)) (A1CF (Homo sapiens)): 12.6

AUAUAG [RNAcompete motif RNCMPT00152]
binding signal (z-score (mean of top ten 7-mers)) (RBMS1 (Homo sapiens)): 7.69

ANAAUAA [RNAcompete motif RNCMPT00142]
binding signal (z-score (mean of top ten 7-mers)) [3]: 6.18

GGAGGGG [RNAcompete motif RNCMPT00134]
binding signal (z-score (mean of top ten 7-mers)) [4]: 7.73

UUUUUU [RNAcompete motif RNCMPT00159]
binding signal (z-score (mean of top ten 7-mers)) (RALY (Homo sapiens)): 16.1

AGAAGA [RNAcompete motif RNCMPT00157]
binding signal (z-score (mean of top ten 7-mers)) (PABPN1 (Homo sapiens)): 11.4

GGGAGGG [RNAcompete motif RNCMPT00160]
binding signal (z-score (mean of top ten 7-mers)) (HNRNPH2 (Homo sapiens)): 16.8

AUGGGGA [RNAcompete motif RNCMPT00150]
binding signal (z-score (mean of top ten 7-mers)) (ESRP2 (Homo sapiens)): 7.36

UNUGUGU [RNAcompete motif RNCMPT00011]
binding signal (z-score (mean of top ten 7-mers)) [5]: 17.7

AACUANG [RNAcompete motif RNCMPT00151]
binding signal (z-score (mean of top ten 7-mers)) (RBM42 (Homo sapiens)): 11.2

GGGUGGG [RNAcompete motif RNCMPT00138]
binding signal (z-score (mean of top ten 7-mers)) [6]: 9.16

GNGUG [RNAcompete motif RNCMPT00146]
binding signal (z-score (mean of top ten 7-mers)) [7]: 8.15

GAAAAA [RNAcompete motif RNCMPT00155]
binding signal (z-score (mean of top ten 7-mers)) (PABPC1 (Homo sapiens)): 11.3

CCUUUUU [RNAcompete motif RNCMPT00012]
binding signal (z-score (mean of top ten 7-mers)) (CPEB2 (Homo sapiens)): 10.8

GAAAA [RNAcompete motif RNCMPT00139]
binding signal (z-score (mean of top ten 7-mers)) [8]: 13

GACAGA [RNAcompete motif RNCMPT00156]
binding signal (z-score (mean of top ten 7-mers)) (CNOT4 (Homo sapiens)): 19

ACUAAG [RNAcompete motif RNCMPT00147]
binding signal (z-score (mean of top ten 7-mers)) [9]: 11.6

AACCCU [RNAcompete motif RNCMPT00137]
binding signal (z-score (mean of top ten 7-mers)) [10]: 10.1

AAUGACAA [RNAcompete motif RNCMPT00161]
binding signal (z-score (mean of top ten 7-mers)) (FXR1 (Homo sapiens)): 6.01

UUUUUU [RNAcompete motif RNCMPT00158]
binding signal (z-score (mean of top ten 7-mers)) (CPEB4 (Homo sapiens)): 14.8
